In patent US20240245805A1 (Orna Therapeutics, Inc., priority 2020, published 2024):

B1: Hubei sobemo-like virus 3 (nucleic acid)
DNA: GAGATGTTTGCGTGGGCCGTTGCGCTGCGGGCGGCCCACCTCCCTACGGGGACCGTGAGACACCGCTGGGGAAGGCCCCCACCCCCGGCCAAGGGGATCCTGCCGAGAGGCAGGAGAAAGAGGCCCAGCCCTCTGGGGCGCCTTTAGGGGTGCCTGGGAGGGAAGTACCCGAGCCGGGCGGCCGGTCGGGTGCGGCTGTGCAGTTCGAGGCTAACCGTAAGGAAGGCCTGAGCTGCCTCGGCTTGTCGGAAAGGAAGACGAAGGCACTTATCAAGGCTTTCAGGAAGCAGGAGCGCAATTACAGCGCGCGCCGTGCGGCCTGGATTAACCGCATTTGGCCG
modifications: source: /note="Description of Unknown: Hubei sobemo-like virus 3 sequence"
B2: Hubei zhaovirus-like virus 1 (nucleic acid)
DNA: GTGCAGGATGGCCTTTCCCATCTTAAGTGGTTTGTAGGATTTCGTGGGTCCATACCCCCCGATTTCTTGGTACGTATTCCATGCACGGAGAATACGACCAAAACTCTTATTTCAAAAAATATTATTTTTTACTCTTGTGGGCTGAGTGCGACCCACCAGTTCCAGCTTAGCAACCTGGAAGTTGTTGGAGATTTATGGAACCAAATTACACATGCGTGGAGTGCCGCCACTCCGTATCTGTTCACTCATTACGCGATTAAGTTCTGCGACGAGACGAGCGAA
modifications: source: /note="Description of Unknown: Hubei zhaovirus-like virus 1 sequence"
B3: Human rhinovirus 1 (nucleic acid, listed as Rhinovirus sp.)
DNA: TTAAAACTGGGTGTGGGTTGTTCCCACCCACACCACCCAATGGGTGTTGTACTCTGTTATTCCGGTAACTTTGTACGCCAGTTTTTCCCTCCCCTCCCCATCCTTTTACGTAACTTAGAAGTTTTAAATACAAGACCAATAGTAGGCAACTCTCCAGGTTGTCTAAGGTCAAGCACTTCTGTTTCCCCGGTTGATGTTGATATGCTCCAACAGGGCAAAAACAACAGATACCGTTATCCGCAAAGTGCCTACACAGAGCTTAGTAGGATTCTGAAAGATCTTTGGTTGGTCGTTCAGCTGCATACCCAGCAGTAGACCTTGCAGATGAGGCTGGACATTCCCCACTGGTAACAGTGGTCCAGCCTGCGTGGCTGCCTGCGCACCTCTCATGAGGTGTGAAGCCAAAGATCGGACAGGGTGTGAAGAGCCGCGTGTGCTCACTTTGAGTCCTCCGGCCCCTGAATGCGGCTAACCTTAAACCTGCAGCCATGGCTCATAAGCCAATGAGTTTATGGTCGTAACGAGTAATTGCGGGATGGGACCGACTACTTTGGGTGTCCGTGTTTCACTTTTTCCTTTATTAATTGCTTATGGTGACAATATATATATTGATATATATTGGCATC
B4: Farmington virus (nucleic acid)
chain: ACGACGCATAAGCAGAGAAACATAAGAGACTATGTTCATAGTCACCCTGTATTCATTATTGACTTTTATGACCTATTATTAGACCCTTCACGGGTAAATCCTTCTCCTTGCAGTTCTCGCCAAGTACCTCCAAAGTCAGAACG
modifications: lipid formulation; source: /note="Description of Unknown: Farmington virus sequence"
B5: Hubei tombus-like virus 9 (nucleic acid)
DNA: GGACCATCCAGGCAGGTGTAGGCTAGTACCCTCACCTGACCTGTCGCGATGTTTGGCTTTGTGAGGCTTGTGGGAGGATCCCTTGGCCCATGCATTGCTGCTGTCATCGTGAAAAATGTTGTATGCTCGCACCTGGCGTGGAGGAAACGGCATTTGACGGATGCTAAGGAGGATTTGAAGGTCCTCAACTCCCATGCCTTATTACAAGTCCCCTTTCCTTCAAGCTTCGAGCCCACGTCTGTGACGAGCAGAGGTGAGGTTGGAGTCAAGAGGAGTCCTATTCAAGCTGTTCGCAGCAAGAACCATAAAACTTTCATTGCTCAATGGGCAAGAGCGGCTAAGGCTCGGTTCTCGTTTGCACGACAGTGTGAGCGGAGCCCTGTAAATGTCGCGGCCCTTCATCGGTGGTTTGCATCGGAGTTTAAGAAAATTGGCATGAACTTGCTCCAGGTTTCGTACGTGATCGATGAGGTTGTTGAACTTAGTTTGGAACCAACGTATGAGCGTATGGTGTCCGAAACTAAGAAGCAATTCCGTCATCGGGCACGTATGGAATACTACAACGAGAAAAAATGCCTTGAAAAGATCCACTAGGAACGC
modifications: source: /note="Description of Unknown: Hubei tombus-like virus 9 sequence"
B6: Hubei tombus-like virus 32 (nucleic acid)
DNA: TTCGGGTTTACCCGCGTAAGCGGCCACACTGACTGGTTGTCGGTGTTGAATTTGTATACCAGATGAGGAGACGTTACCACCGTCTCGGCAGTGCTACGTCTGGGAAAGGACTGTGATAGTGGACAGTCCTACCGTCTTTAGATACATTGCGTTGTGTATAGCCCGGGAGGGATTAACTAATAGCAACGCAATGCACACGGCGGTTCGGATTTGCTTGACTGATGGAAAGACATCTAAGTTCTAATTGAACC
modifications: source: /note="Description of Unknown: Hubei tombus-like virus 32 sequence"
B7: Goat torovirus (nucleic acid, listed as Torovirus sp.)
chain: GTACTTACAAGCGGGTTAAACCGCCCTCCGGAACGGTTACAACCCCCTCCCGAACGTGCGCTTGACGTGACTGGTTCTCAGTCTGGCTTTCTGAGAAATACTCCAGGGTTGTATCCCACCATCTTGACCTCTGGTCATTTTGGTAACACCATAACCAAACAAACTCTACACACCTAACCCACCTCCAGCTTGCTGCAGGCCTTTTGGACTAAACGGGTTTAGGTGTTTTGTGACCAACTCGTCTACCCACCTCCAGTTTTACTGCAGGCCTTTTTGGACTAAACGGCTTTAGACTTTTGTGGTTAGTTTTTAACTACCCACTGTTTAGCCGCCAACCTGATTTTCATTGTTGTAAAATTTTGTGTTTATACACTATTTTCATACGGTTGGCAGTTTGTTTGGTTGTTTGCACAGTTTTTGTTGATACCAATTTTTACTGTGCTTTTAGTGTATTCTGCTAAGGCTGTATTTTACATACTTAGTTTGGTTGAAGCAATTTTTACAACATTTATATTGTTTTTGATTTCTAAGGTAAAGAGTCTTAGGAAACACCATAGACGCCATTCTTGTGGTGTCTAGTTCCAACTAATCTGGCAAACAAGTACCAAGTCATTGACTCACTTTGGAGTGAGACTTACGAGTACCAATTTGCCTATTTCGGACATCCATATAAAG
modifications: lipid formulation
B8: Grapevine associated narnavirus-1 (nucleic acid, listed as Narnavirus sp.)
chain: GCCCGGGGGGTGCAGTCCTGTGAAAGGGTCTGCACCATACTATATATGTATATGATTACATCCCAAAAGGCGACTTCGTTCAGGTTTTAAATCTGACGTAGGTCCAGTAAATAAGCATGTCAAAACATGTAAGTTTATCCTGTAATCTACTCTCATAAGATGAGATAAGATGATATTGCAGTTCCCATGTAAATAAATCCATTATGAATTCATTCATATAAGGTAGAAGTGGTAACTATGGTTGAAACATTAATATAAAACGGTCATTTTGCATGAACGTCATTAAGGAACTGGCATACCAATGTCTATTTAGTGACTATGATATTTAGAGTATCCCTTATATTAATTAACAATTATTCCTTTTAGCATATCATCCGACAACAAATTTTAAAAGAAGAAATATTACTCATTAAAA
modifications: lipid formulation
B9: Human TMEV-like cardiovirus (nucleic acid, listed as Cardiovirus sp.)
DNA: TCCGACGTGGTTGGAATTAACATCTTTTCCGACGAAAGTGCTATTATGCCTCCCCGATTGTGTGATGCTTTCTGCCCTGCTGGGCGGAGCGTCCTCGGGTTGAGAAACCTTGAATCTTTTCCTTTGGAGCCTTGGCTCCCCCGGTCTAAGCCGCTTGGAATATGACAGGGTTATTTTCCAAACTCTTTATTTCTACTTTCATGGGTTCTATCCATGAAAAGGGTATGTGTTGCCCCTTCCTTCTTTGGAGAATCTGCGCGGCGGTCTTTCCGTCTCTCAACAGGCGTGGATGCAACATGCCGGAAACGGTGAAGAAAACAGTTTTCTGTGGAAATTTAGAGTGGACATCGAAACAGCTGTAGCGACCTCACAGTAGCAGCGGATTCCCCTCTTGGCGACAAGAGCCTCTGCGGCCAAAAGCCCCGTGGATAAGATCCACTGCTGTGAGCGGTGCAACCCCAGCACCCTGGTTCGATGGCCATTCTCTATGGAACCAGAAAATGGTTTTCTCAAGCCCTCCGGTAGAGAAGCCAAGAATGTCCTGAAGGTACCCCGCGCGCGGGATCTGATCAGGAGACCAATTGGCAGTGCTTTACGCTGCCACTTTGGTTTAAAAACTGTCACAGCTTCTCCAAACCAAGTGGTCTTGGTTTTCCAATTTTGTTGACTGACAAT
B10: Feline infectious peritonitis virus (nucleic acid)
chain: ACTTTTAAAGTAAAGTGAGTGTAGCGTGGCTATAACTCTTCTTTTACTTTAACTAGCCTTGTGCTAGATTTGTCTTCGGACACCAACTCGAACTAAACGAAATATTTGTCTCTCTATGAAACCATAGAAGACAAGCGTTGATTATTTCACCAGTTTGGCAATCACTCCTAGGAACGGGGTTGAGAGAACGGCGCACCAGGGTTCCGTCCCTGTTTGGTAAGTCGTCTAGTATTAGCTGCGGCGGTTCCGCCCGTCGTAGTTGGGTAGACCGGGTTCCGTCCTGTGATCTCCCTCGCCGGCCGCCAGGAGA
modifications: lipid formulation; source: /note="Description of Unknown: Feline infectious peritonitis virus sequence"

Test system: HEK293 cells
Assay type: cell-based, human
Conditions: circular RNA encoding Gluc with the listed IRES (UTR truncated to 675 nt) transfected into HEK293 cells; supernatant after 24 hours

Row | Molecule | Expression (luminescence from secreted Gluc protein)
1 | B1 | 1.17E+05
2 | B2 | 1.03E+05
3 | B3 | 7.40E+07
4 | B4 | 1.22E+05
5 | B5 | 9.28E+04
6 | B6 | 9.23E+04
7 | B7 | 1.19E+05
8 | B8 | 1.30E+05
9 | B9 | 4.48E+07
10 | B10 | 1.35E+05
